# In the DeepSol protein solubility set:
# Test: soluble on expression in E. coli; label from the status in PepcDB or PDB records
row,Sequence,soluble on expression in E. coli
1,MVNTIGFDREKYIEMQSQHIRERREALGGKLYLEMGGKLFDDMHASRVLPGFTPDNKIAMLDRIKDEVEILVCINAKDLERHKIRADLGISYEEDVLRLVDVFRDRGFLVEHVVLTQLENDNRLALAFIERLQRLGIKVSRHRVIPGYPTDMDRIVSDEGFGLNEYAETTRDLVVVTAPGPGSGKLATCLSQVYHEHKRGVAAGYAKFETFPIWNLPLEHPVNLAYEAATVDLNDANVIDHFHLAAYGEQTVNYNRDVEAFPLLKTLLERLMGESPYQSPTDMGVNMAGNCISDDAACRHASEQEIIRRYFKALVEEARTGKDSTQSDRAAVVMAKAGIKASQRVVVEPARQVEERTSLPGCAIELVDGSIITGATSDLLGCSSSMLLNALKHLAGIDDAIHLLSPESIEPIQTLKTVHLGSSNPRLHTDEVLIALSVSAATDSNAQKALDQLKNLRGCDVHTTTILGSVDEGIFRNLGVLVTSDPKFQKNKLYQKR,not soluble
2,MSEQKRRTIQIAISEDHYEELQKALELLKGTQLPFSTTVEQFVELILSNYVATSNKISSLAKSGFDVASLQQELEKIGNLSGVDDNLKGFLSELLKTSRNGFSNPNKDGKKNDDDNNSSSKS,soluble
3,MGHHHHHHSHNDGRIMGFVSRSQERRLLKKTMSGTFLLRFSESSEGGITCSWVEHQDDDKVLIYSVQPYTKEVLQSLPLTEIIRHYQLLTEENIPENPLRFLYPRIPRDEAFGCYYQEKVNLQERRKYLKHRLIVVSNRQVDELQQPLELKPEPELESLELELGLVPEPELSLDLEPLLKAGLDLGPELESVLESTLEPVIEPTLCMVS,soluble
4,MSLIRIDFSQLHQAREDAAAAMPSIAGKKILMGFWHNWPAGAADGYQQGSFANIALEDVPSEYNVVAVAFMKGRGIPTFQPYNLSDAEFRRQVGVLNAQGRAVLISLGGADAHIELHAGQEQALAAEIVRLVETYGFDGLDIDLEQSAIDLADNQRVLPAALKLVREHYAGQGKHFIVSMAPEFPYLHKNGKYVPYLQALEGVYDFIAPQYYNQGGDGLWVQEANGGKGAWIAQNNDAMKEDFLYYLTESLATGSRDFVRIPAQRLAIGLPSNVDAAATGYVIDPAAVSNAFRRLEAAGHAIKGLMTWSVNWDDGLNKRGERYNWEFRKRYASLIHDGEGGDQRPAAPQGLRLLERGETSLVLAWNASSGQRPIDYYSLYRDGAMVGQSAALGSTDSGLTADTRYSYFVTATDTQGNQSLPSEGLEVSTSGGAVDPQFPQWRENQAYRVDDGVTYEGLRYLCLQAHTSNSGWTPPVAFTLWREGGSHHHHHH,soluble
5,NMIKAAISRQREFLADASAVQFTRNDQGIAGALKKIGSNVQGSTLNTKASDEMSHMMFGQSKLSGFSGLFATHPPLDERIRRIEPNWDGSYAQHSHAQNTAFDNEQVSGFAVGGGSPASQSASPSEQLSETGQQLISQLPPELVDIAREPYSARFIAFALIFDGSDIQREMIKSYVPLASQSTLLPWLDYDLPLHLRFPLLELALPALKSLSEAQKISLCKVLRELSETDNQYSLAEWCVINLLEKQLLASFGFIKQHKSLKQLEESVFWLLRELAWVSHSQADKAQRAYHCALAHLGFPEVKLEPANSNWHLSRAALELLLQLKPNDRRMFVKACRLAIESDGEITVAEGEIYRVIACFLEVPEPPLTISG,not soluble
6,MGSDKIHHHHHHADSVKIGFITDMSGLYADIDGQGGLEAIKMAVADFGGKVNGKPIEVVYADHQNKADIAASKAREWMDRGGLDLLVGGTNSATALSMNQVAAEKKKVYINIGAGADTLTNEQCTPYTVHYAYDTMALAKGTGSAVVKQGGKTWFFLTADYAFGKALEKNTADVVKANGGKVLGEVRHPLSASDFSSFLLQAQSSKAQILGLANAGGDTVNAIKAAKEFGITKTMKLAALLMFINDVHALGLETTQGLVLTDSWYWNRDQASRQWAQRYFAKMKKMPSSLQAADYSSVTTYLKAVQAAGSTDSDKVMAQLKKMKIDDFYAKGYIRTDGSMIHDMYLMEVKKPSESKEPWDYYKVVATIPGEQAFTTKQETRCALWK,not soluble
7,MSLNPSKKKNNFNMQDPFAWQKINKQIRDANASQLDVLAKEFDTQETLPIYAYILERKNNFKKHYFIMPYYDNIKDYNKTRQALILAIARQESRFIPTAISVSYALGMMQFMPFLANHIGEKELKIPNFDQDFMFKPEIAYYFGNYHLNYLESRLKSPLFVAYAYNGGIGFTNRMLARNDMFKTGKFEPFLSMELVPYQESRIYGKKVLANYIVYRHLLNDSIKISDIFENLIQNKANDLNKEGHHHHHH,not soluble
8,MAKRFTLKDAEELYLVPHWSGGFFRVGEKGDLEVTPLGPKGPAASLLEIVEALRDEGRPLPLVLRFPQILEARVRDLNEAFLEAMAKYGYQGTYRGVYPVKVNQRRLVLETVARAGRPYHLGLEAGSKPELALILAQDLSEEALITTNGFKDDDFVRLALMGRKLGRNVVITLEKFAELFRVLRLSKELGVKPLLGIRYKLKAKGAGQWEASGGENAKFGLTTPEIVRAVEVLQEEGLLDALVMLHAHIGSQVTDIRRIKAAVREAAQTYVQLRKLGAPLRYLNLGGGLAVDYDGSKTNFYASANYTLSEYAENLVYVTKEVVEAQGEPHPILVTESGRAITAYHEVLVLQVIDVIAPPGEARPSPPPPEAHPLVKELWESLQSLSPKNFQEVYHDAFADKETLQTLYDLGLVSLRDRALAEEIFYHIARRVQTIAQNLPYVPDELEDLEKLLADKLVCNFSVFQSLPDAWAIHQLFPVVPLSRLLEPPTRRATLVDISCDSDGKMDRFIDLHDVRQTLPVHPVRPGEPYYLGVFLVGAYQDVLGSNHNLFGQVGEAHVRVEEEGFAIERFVGGETAERVIEKMGFTARELMLGVERLVRQSRLSPVEKGAFLERYARELQGYTYLED,soluble
9,MAHHHHHHMGGDVTFSLTKTRDTFADWFDAIMDAAELVDRRYPVKGCVVFRPYGFFMENAIMRLCEEEYAKVGISQILFPTVIPESFLKKESDHIKGFEAECFWVEKGGLQPLEERLALRPTSETAIYSMFSKWVRSYKDLPLKIHQTCTIFRHETKNTKPLIRVREIHWNEAHCCHATAEDAVSQLSDYWKVIDTIFSDELCFKGQKLRRVCWDRFPGADYSEVSDVVMPCGRVLQTAGIHNLGQRFSSTFDILYANKANESVHPYLTCAGISTRVLACALSIHGDSGGLVLPPLIAPIHVVIIPIGCGKKNNQESDQQVLGKVNEIADTLKSKLGLRVSIDDDFSKSMGDKLYYYELKGVPLRIEVGQRDLANGQCIVVPRDVGKDQKRVIPITEVMKVSSHTTENHELVVKNVIKDELDAYKARLKEKAFAFHNSMVTNCKSFDEIVACIENKGGLARFPFYTTEADGEVWDKKLKDACSAEIRGHNPDENVLPGEVCALSGKPAVCYMYCAKSY,soluble
10,MKNDVISPEFDENGRPLRRIRSFVRRQGRLTKGQEHALENYWPVMGVEFSEDMLDFPALFGREAPVTLEIGFGMGASLVAMAKDRPEQDFLGIEVHSPGVGACLASAHEEGLSNLRVMCHDAVEVLHKMIPDNSLRMVQLFFPDPWHKARHNKRRIVQVPFAELVKSKLQLGGVFHMATDWEPYAEHMLEVMSSIDGYKNLSESNDYVPRPASRPVTKFEQRGHRLGHGVWDLMFERVK,soluble
11,MGSDKIHHHHHHMSSFSLDFSLGTFQPLAAKMRPQTLKQYCGQEHLIGAGKPLYKAIENGHIHSMIFWGPPGTGKTTLAEIIAQQIHAQVERISAVTAGVKEIRESIERAKQNRLMGQQTILFVDEVHRFNKTQQDAFLPHIENGTIIFIGATTENPSFELNNALLSRVKVYILKPLTTSNIVTVLQNAIQDAEQGLGKERLIFAENVLETLAEYVNGDARLALNCLELMVDMADETEKGKLINHHLLTEVLGERQARFDKQGDRFYDLISALHKSIRGSAPDAALYWYARIITAGGDPLYVARRLLAIASEDVGNADPRAMQVALAAWDCFTRVGAAEGERAIAQAIVYLAVAPKSNAVYVAFKQAKKLAKEMPDYDVPVHLRNAPTHLMKELGYGAEYRYAHDEPNAYAAGEIYFPEELKNTKFYFPTDRGLEIQLKEKLARLHNLDEQSTKKRYK,not soluble
